Numbering of substitutions follows the chain as printed.
B1: SD-127612-afuc (antibody, V domains shown)
VH: QVQLVQSGAEVKKPGASVKVSCKASGYTFTSYDINWVRQAPGQRLEWMGWIFPGDGTSKYNEKFKGRVTITRDTSASTAYMELSSLRSEDTAVYYCARRLGSHWGQGTLVTVSS
VL: DIVLTQSPDSLAVSPGERATISCKASQSVDSDGDSYMNWYQQKPGQPPKLLIYGASNLESGVPDRFSGSGSGTDFTLTISRVEAEDVAVYYCQQSHEYPFTFGGGTKLEIK
notes: afucosylated (FUT8 knock-out CHO)
B2: SD-649072-afuc (antibody, V domains shown)
VH: B1 VH with S102T, H103V
VL: B1 VL with D9A, E17Q, S22T, D64A, S80N, R81P, E85N, V87T, V89N, G104Q
notes: as for B1

What was measured:
[1] = target: T1, human EGFRvIII overexpressed on cells (F98npEGFRvIII, U87MG-EGFRvIII, FaDu-EGFRvIII) (human, UniProt P00533 25-1210); test: cell-based or functional assay
[2] = target: T1, human EGFRvIII overexpressed on cells …; test: cell-based or functional assay; remark: listed apart in the source
[3] = target: T1, human EGFRvIII overexpressed on cells …; test: flow cytometry, FaDu-EGFRvIII cells, n=3
[4] = target: T1, human EGFRvIII overexpressed on cells …; test: flow cytometry, U87MG-EGFRvIII cells, n=3
[5] = target: T2, human EGFRvIII, purified recombinant protein (Acro Biosystems Cat #EGI-H52H4) (human, UniProt P00533 25-645); test: ELISA, antigen coated at 1 ug/mL, anti-human IgG-HRP, n=3
T2 construct: Bought protein; the deletion must be applied; also called truncated human EGFRvIII; huEGFRvIII

[6] = target: T3, wild type human EGFR1 on cells (F98 EGFR1; wild type U87MG; wild type FaDu) (human, UniProt P00533 25-1210); test: flow cytometry on wild type U87MG cells, anti-human IgG Fc Alexa Fluor 647, MFI
T3 construct: whole, on cells

[7] = target: T2, human EGFRvIII, purified recombinant …; test: SPR (Carterra LSA), antibody captured on anti-human IgG, antigen injected, 1:1 Langmuir fit;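 note: EGFRvIII injected at five concentrations, fivefold serial dilution starting 500 nM, 5 min association then 15 min dissociation, double-referenced against interspot and buffer blank signals, global kinetic fit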
[8] = target: T4, human EGFR, purified recombinant protein (Acro Biosystems Cat #EGR-H5222) (human, UniProt P00533 25-645); test: SPR (Carterra LSA), antibody captured on anti-human IgG, EGFR1 injected in a 5-fold series from 500 nM
T4 construct: Bought protein; also called EGFR1; full length human EGFR1

[9] = target: T4, human EGFR, purified recombinant …; test: ELISA, plate coated with human EGFR1, anti-human IgG-HRP, OD450

Binder | ADCC EC50 (nM), U87MG-EGFRvIII cells with PBMC [1] | ADCC EC50 (nM), FaDu-EGFRvIII cells with PBMC [2] | EC50 [3] | EC50 [4] | EC50 [5] | binding result [6] | Kd [7] | koff [7] | kon [7] | binding result [8] | binding result [9]
B1 | 0.0047 nM | 0.0051 nM | 5.27 nM | 6.05 nM | 0.156 nM | no binding | 57 nM | 0.0024 s⁻¹ | 42000 M⁻¹ s⁻¹ | no binding | 
B2 | 0.0066 nM | 0.0033 nM | 3.86 nM | 4.33 nM | 0.129 nM | no binding | 33 nM | 0.0017 s⁻¹ | 51000 M⁻¹ s⁻¹ |  | no binding
